B1: HES5 (protein, UniProt Q5TA89 1-166, looked up)
Transcription factor HES-5: MAPSTVAVELLSPKEKNRLRKPVVEKMRRDRINSSIEQLKLLLEQEFARHQPNSKLEKADILEMAVSYLKHSKAFVAAAGPKSLHQDYSEGYSWCLQEAVQFLTLHAASDTQMKLLYHFQRPPAAPAAPAKEPKAPGAAPPPALSAKATAAAAAAHQPACGLWRPW
B2: HESX (protein, UniProt Q9UBX0 1-185, looked up)
Homeobox expressed in ES …: MSPSLQEGAQLGENKPSTCSFSIERILGLDQKKDCVPLMKPHRPWADTCSSSGKDGNLCLHVPNPPSGISFPSVVDHPMPEERASKYENYFSASERLSLKRELSWYRGRRPRTAFTQNQIEVLENVFRVNCYPGIDIREDLAQKLNLEEDRIQIWFQNRRAKLKRSHRESQFLMAKKNFNTNLLE
B3: HEYL (protein, UniProt Q9NQ87 1-328, looked up)
Hairy/enhancer-of-split …: MKRPKEPSGSDGESDGPIDVGQEGQLSQMARPLSTPSSSQMQARKKHRGIIEKRRRDRINSSLSELRRLVPTAFEKQGSSKLEKAEVLQMTVDHLKMLHATGGTGFFDARALAVDFRSIGFRECLTEVIRYLGVLEGPSSRADPVRIRLLSHLNSYAAEMEPSPTPTGPLAFPAWPWSFFHSCPGLPALSNQLAILGRVPSPVLPGVSSPAYPIPALRTAPLRRATGIILPARRNVLPSRGASSTRRARPLERPATPVPVAPSSRAARSSHIAPLLQSSSPTPPGPTGSAAYVAVPTPNSSSPGPAGRPAGAMLYHSWVSEITEIGAF
B4: HHEX (protein, UniProt Q03014 1-270, looked up)
Hematopoietically-expressed …: MQYPHPGPAAGAVGVPLYAPTPLLQPAHPTPFYIEDILGRGPAAPTPAPTLPSPNSSFTSLVSPYRTPVYEPTPIHPAFSHHSAAALAAAYGPGGFGGPLYPFPRTVNDYTHALLRHDPLGKPLLWSPFLQRPLHKRKGGQVRFSNDQTIELEKKFETQKYLSPPERKRLAKMLQLSERQVKTWFQNRRAKWRRLKQENPQSNKKEELESLDSSCDQRQDLPSEQNKGASLDSSQCSPSPASQEDLESEISEDSDQEVDIEGDKSYFNAG
B5: HLF (protein, UniProt Q16534 1-295, looked up)
Hepatic leukemia factor: MEKMSRPLPLNPTFIPPPYGVLRSLLENPLKLPLHHEDAFSKDKDKEKKLDDESNSPTVPQSAFLGPTLWDKTLPYDGDTFQLEYMDLEEFLSENGIPPSPSQHDHSPHPPGLQPASSAAPSVMDLSSRASAPLHPGIPSPNCMQSPIRPGQLLPANRNTPSPIDPDTIQVPVGYEPDPADLALSSIPGQEMFDPRKRKFSEEELKPQPMIKKARKVFIPDDLKDDKYWARRRKNNMAAKRSRDARRLKENQIAIRASFLEKENSALRQEVADLRKELGKCKNILAKYEARHGPL
B6: HLX (protein, UniProt Q14774 1-488, looked up)
H2.0-like homeobox protein: MFAAGLAPFYASNFSLWSAAYCSSAGPGGCSFPLDPAAVKKPSFCIADILHAGVGDLGAAPEGLAGASAAALTAHLGSVHPHASFQAAARSPLRPTPVVAPSEVPAGFPQRLSPLSAAYHHHHPQQQQQQQQPQQQQPPPPPRAGALQPPASGTRVVPNPHHSGSAPAPSSKDLKFGIDRILSAEFDPKVKEGNTLRDLTSLLTGGRPAGVHLSGLQPSAGQFFASLDPINEASAILSPLNSNPRNSVQHQFQDTFPGPYAVLTKDTMPQTYKRKRSWSRAVFSNLQRKGLEKRFEIQKYVTKPDRKQLAAMLGLTDAQVKVWFQNRRMKWRHSKEAQAQKDKDKEAGEKPSGGAPAADGEQDERSPSRSEGEAESESSDSESLDMAPSDTERTEGSERSLHQTTVIKAPVTGALITASSAGSGGSSGGGGNSFSFSSASSLSSSSTSAGCASSLGGGGASELLPATQPTASSAPKSPEPAQGALGCL
B7: HMBOX1 (protein, UniProt Q6NT76 1-420, looked up)
Homeobox-containing protein 1: MLSSFPVVLLETMSHYTDEPRFTIEQIDLLQRLRRTGMTKHEILHALETLDRLDQEHSDKFGRRSSYGGSSYGNSTNNVPASSSTATASTQTQHSGMSPSPSNSYDTSPQPCTTNQNGRENNERLSTSNGKMSPTRYHANSMGQRSYSFEASEEDLDVDDKVEELMRRDSSVIKEEIKAFLANRRISQAVVAQVTGISQSRISHWLLQQGSDLSEQKKRAFYRWYQLEKTNPGATLSMRPAPIPIEDPEWRQTPPPVSATSGTFRLRRGSRFTWRKECLAVMESYFNENQYPDEAKREEIANACNAVIQKPGKKLSDLERVTSLKVYNWFANRRKEIKRRANIEAAILESHGIDVQSPGGHSNSDDVDGNDYSEQDDSTSHSDHQDPISLAVEMAAVNHTILALARQGANEIKTEALDDD
B8: HMG1 (protein, UniProt P09429 1-215, looked up)
High mobility group protein B1: MGKGDPKKPRGKMSSYAFFVQTCREEHKKKHPDASVNFSEFSKKCSERWKTMSAKEKGKFEDMAKADKARYEREMKTYIPPKGETKKKFKDPNAPKRPPSAFFLFCSEYRPKIKGEHPGLSIGDVAKKLGEMWNNTAADDKQPYEKKAAKLKEKYEKDIAAYRAKGKPDAAKKGVVKAEKSKKKKEEEEDEEDEEDEEEEEDEEDEDEEEDDDDE
B9: HMG20A (protein, UniProt Q9NP66 1-347, looked up)
High mobility group protein …: MENLMTSSTLPPLFADEDGSKESNDLATTGLNHPEVPYSSGATSSTNNPEFVEDLSQGQLLQSESSNAAEGNEQRHEDEQRSKRGGWSKGRKRKKPLRDSNAPKSPLTGYVRFMNERREQLRAKRPEVPFPEITRMLGNEWSKLPPEEKQRYLDEADRDKERYMKELEQYQKTEAYKVFSRKTQDRQKGKSHRQDAARQATHDHEKETEVKERSVFDIPIFTEEFLNHSKAREAELRQLRKSNMEFEERNAALQKHVESMRTAVEKLEVDVIQERSRNTVLQQHLETLRQVLTSSFASMPLPGSGETPTVDTIDSYMNRLHSIILANPQDNENFIATVREVVNRLDR
B10: HMG20B (protein, UniProt Q9P0W2 1-317, looked up)
SWI/SNF-related …: MSHGPKQPGAAAAPAGGKAPGQHGGFVVTVKQERGEGPRAGEKGSHEEEPVKKRGWPKGKKRKKILPNGPKAPVTGYVRFLNERREQIRTRHPDLPFPEITKMLGAEWSKLQPTEKQRYLDEAEREKQQYMKELRAYQQSEAYKMCTEKIQEKKIKKEDSSSGLMNTLLNGHKGGDCDGFSTFDVPIFTEEFLDQNKAREAELRRLRKMNVAFEEQNAVLQRHTQSMSSARERLEQELALEERRTLALQQQLQAVRQALTASFASLPVPGTGETPTLGTLDFYMARLHGAIERDPAQHEKLIVRIKEILAQVASEHL
B11: HMX2 (protein, UniProt A2RU54 1-273, looked up)
Homeobox protein HMX2: MGSKEDAGKGCPAAGGVSSFTIQSILGGGPSEAPREPVGWPARKRSLSVSSEEEEPDDGWKAPACFCPDQHGPKEQGPKHHPPIPFPCLGTPKGSGGSGPGGLERTPFLSPSHSDFKEEKERLLPAGSPSPGSERPRDGGAERQAGAAKKKTRTVFSRSQVYQLESTFDMKRYLSSSERACLASSLQLTETQVKTWFQNRRNKWKRQLSAELEAANMAHASAQTLVSMPLVFRDSSLLRVPVPRSLAFPAPLYYPGSNLSALPLYNLYNKLDY
B12: HNF4G (protein, UniProt Q14541 1-408, looked up)
Hepatocyte nuclear factor …: MNTTDNGVNCLCAICGDRATGKHYGASSCDGCKGFFRRSIRKSHVYSCRFSRQCVVDKDKRNQCRYCRLRKCFRAGMKKEAVQNERDRISTRRSTFDGSNIPSINTLAQAEVRSRQISVSSPGSSTDINVKKIASIGDVCESMKQQLLVLVEWAKYIPAFCELPLDDQVALLRAHAGEHLLLGATKRSMMYKDILLLGNNYVIHRNSCEVEISRVANRVLDELVRPFQEIQIDDNEYACLKAIVFFDPDAKGLSDPVKIKNMRFQVQIGLEDYINDRQYDSRGRFGELLLLLPTLQSITWQMIEQIQFVKLFGMVKIDNLLQEMLLGGASNDGSHLHHPMHPHLSQDPLTGQTILLGPMSTLVHADQISTPETPLPSPPQGSGQEQYKIAANQASVISHQHLSKQKQL
B13: ARID3C (protein, UniProt A6NKF2 1-412, looked up)
AT-rich interactive …: MEALQKQQAARLAQGVGPLAPACPLLPPQPPLPDHRTLQAPEGALGNVGAEEEEDAEEDEEKREEAGAEEEAAEESRPGAQGPSSPSSQPPGLHPHEWTYEEQFKQLYELDADPKRKEFLDDLFSFMQKRGTPVNRVPIMAKQVLDLYALFRLVTAKGGLVEVINRKVWREVTRGLSLPTTITSAAFTLRTQYMKYLYPYECETRALSSPGELQAAIDSNRREGRRQAYTATPLFGLAGPPPRGAQDPALGPGPAPPATQSSPGPAQGSTSGLPAHACAQLSPSPIKKEESGIPNPCLALPVGLALGPTREKLAPEEPPEKRAVLMGPMDPPRPCMPPSFLPRGKVPLREERLDGPLNLAGSGISSINMALEINGVVYTGVLFARRQPVPASQGPTNPAPPPSTGPPSSILP
B14: ARID4A (protein, UniProt P29374 1-1257, looked up)
AT-rich interactive …: MKAADEPAYLTVGTDVSAKYRGAFCEAKIKTVKRLVKVKVLLKQDNTTQLVQDDQVKGPLRVGAIVETRTSDGSFQEAIISKLTDASWYTVVFDDGDERTLRRTSLCLKGERHFAESETLDQLPLTNPEHFGTPVIAKKTNRGRRSSLPVTEDEKEEESSEEEDEDKRRLNDELLGKVVSVVSATERTEWYPALVISPSCNDDITVKKDQCLVRSFIDSKFYSIARKDIKEVDILNLPESELSTKPGLQKASIFLKTRVVPDNWKMDISEILESSSSDDEDGPAEENDEEKEKEAKKTEEEVPEEELDPEERDNFLQQLYKFMEDRGTPINKPPVLGYKDLNLFKLFRLVYHQGGCDNIDSGAVWKQIYMDLGIPILNSAASYNVKTAYRKYLYGFEEYCRSANIQFRTVHHHEPKVKEEKKDLEESMEEALKLDQEMPLTEVKSEPEENIDSNSESEREEIELKSPRGRRRIARDVNSIKKEIEEEKTEDKLKDNDTENKDVDDDYETAEKKENELLLGRKNTPKQKEKKIKKQEDSDKDSDEEEEKSQEREETESKCDSEGEEDEEDMEPCLTGTKVKVKYGRGKTQKIYEASIKSTEIDDGEVLYLVHYYGWNVRYDEWVKADRIIWPLDKGGPKKKQKKKAKNKEDSEKDEKRDEERQKSKRGRPPLKSTLSSNMPYGLSKTANSEGKSDSCSSDSETEDALEKNLINEELSLKDELEKNENLNDDKLDEENPKISAHILKENDRTQMQPLETLKLEVGENEQIVQIFGNKMEKTEEVKKEAEKSPKGKGRRSKTKDLSLEIIKISSFGQNEAGSEPHIEAHSLELSSLDNKNFSSATEDEIDQCVKEKKLKRKILGQSSPEKKIRIENGMEMTNTVSQERTSDCIGSEGMKNLNFEQHFERENEGMPSLIAESNQCIQQLTSERFDSPAEETVNIPLKEDEDAMPLIGPETLVCHEVDLDDLDEKDKTSIEDVAVESSESNSLVSIPPALPPVVQHNFSVASPLTLSQDESRSVKSESDITIEVDSIAEESQEGLCERESANGFETNVASGTCSIIVQERESREKGQKRPSDGNSGLMAKKQKRTPKRTSAAAKNEKNGTGQSSDSEDLPVLDNSSKCTPVKHLNVSKPQKLARSPARISPHIKDGEKDKHREKHPNSSPRTYKWSFQLNELDNMNSTERISFLQEKLQEIRKYYMSLKSEVATIDRRRKRLKKKDREVSHAGASMSSASSDTGMSPSSSSPPQNVLAVECR

These molecules were tested on HEK293FT cells transfected with TF library (assay: Screening of TF condensates based on fluorescent puncta). Conditions: Figure 1B numerical data; TF library screen, one value per transcriptional factor.
Format: cell-based
Summary of the method: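 Cells were seeded onto plasmid/PEI-loaded wells (plasmid 1.6 μg/ml final) and grown 60 h. Medium with or without glucose followed for 12 h. Fixed, permeabilized cells were stained against Flag or GAL4 tags, and condensate puncta were quantified from 50 random fields per well.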

Q: For B1, which “Z score of condensed fraction” value is on record?
A: -0.9865

Q: B2 was tested. Which “Z score of condensed fraction” value did it give?
A: -0.5047

Q: How did the “Z score of condensed fraction” value turn out when B3 was run?
A: 1.497

Q: With B4 as the molecule, how does the “Z score of condensed fraction” value read?
A: -0.4373

Q: Which “Z score of condensed fraction” value does the source give for B5 here?
A: 2.55

Q: With B6 as the molecule, how does the “Z score of condensed fraction” value read?
A: 2.079

Q: For B7, which “Z score of condensed fraction” value is on record?
A: -0.9564

Q: How did the “Z score of condensed fraction” value turn out when B8 was run?
A: 1.213

Q: For B9, which “Z score of condensed fraction” value is on record?
A: -0.5061

Q: For B10, which “Z score of condensed fraction” value is on record?
A: -0.2795

Q: With B11 as the molecule, how does the “Z score of condensed fraction” value read?
A: 0.8931

Q: For B12, which “Z score of condensed fraction” value is on record?
A: 0.7637

Q: For B13, which “Z score of condensed fraction” value is on record?
A: 0.4617

Q: B14 was tested. Which “Z score of condensed fraction” value did it give?
A: 0.8979
